Measurements as given in the RNAGym collection of RNA variant scans (doi:10.7554/elife.80360).

B1: HDV Ribozyme (parent)
chain: GGCCGGCAUGGUCCCAGCCUCCUCGCUGGCGCCGGCUGGGCAACAUUCCGAGGGGACCGUCCCCUCGGUAAUGGCGAAUGGGACCCA

Variants of: B1
Assay: self-cleavage, relative activity (ratio to wild type); higher = more cleavage; co-transcriptional

| Variant | self-cleavage |
| --- | --- |
| GGCCGGCAUGGUCCCAGCCUCCUCUCUGGCGCCGGCUAGGCAACAUUCCGAGGGGACCGUCCCCUCGGUAAUGGCGAAUGGGACCCA [G25U G38A] | 0.0511 |
| GGCCGGCAUGGUCCCAGCCUCCUCGCUGGCGGCGGCUGGGCAACAUACCGAGGGGACCGUCCCCUCGGUAAUGGCGAAUGGGACCCA [C32G U47A] | 0.244 |
| GGCCGGCAUGGUCCCAGCCUCCUCGCUGGCGCCGGCUGGGCCACAUUCCGAGGGGAACGUCCCCUCGGUAAUGGCGAAUGGGACCCA [A42C C57A] | 0.373 |
| GGCCGGCAUGGUCCCAGCCUCCUCGCUGGCGCCGGCUGGGCAACAUUCCGAGGGGACCGUCCCCUAGGUAAUGGCGACUGGGACCCA [C66A A78C] | 0.142 |
| GGCCGGCAUGAUCCCAGCCUCCUCGCUGGCGCCGGCUGGGCAACAUUCCGAGGGGACCGUCCCCUCGGUAAUGGUGAAUGGGACCCA [G11A C75U] | 0.144 |
| AGCCGGCAUGGUCCCAGCCUCCUCGCUGGCGCCGGCUGGGCAACAUUCCGAGGGGACCGUCCCCUAGGUAAUGGCGAAUGGGACCCA [G1A C66A] | 0.26 |
| GGCCGGCAUGGUCCCAGCCUCCUCGCUGGCGCCGGCUGGGCAACAGUCCGAGGGGACCCUCCCCUCGGUAAUGGCGAAUGGGACCCA [U46G G59C] | 0.831 |
| GGCCGGCAUGGUCCCAGCCUCCUCGCUGGCGCCGGCUGGGCAACAUCCCGAGGGGACCGUCCCCUCGGUAUUGGCGAAUGGGACCCA [U47C A71U] | 1.11 |
| GGCCGGCAUGGUCCCAGCCUCCUCGCUGGCGCCGGCUGGGCAACAUUCCGAGGGGACCGUCCCCGCGGUAAUGGCGAAUGAGACCCA [U65G G81A] | 0.282 |
| GGCCGGCAUGGUCCCAGCCUCGUCGCUGGCGCCGGCUGGGCAACAUUCCGAGGGGACCGUCCCCUCGGUAAUGGCGAAUAGGACCCA [C22G G80A] | 0.135 |
| GGCCGGCAUGGUCCCAGCCUCCCCGCUGGCGCCGGCUGGGCAACAUUCCGAGGGGACCAUCCCCUCGGUAAUGGCGAAUGGGACCCA [U23C G59A] | 1.19 |
| GGCCCGCAUGGUCCCAGCCUCCUCGCUGGCGCCGGCUGGGCAACAUUCCGAGGGGACCGUCCCCUCGUUAAUGGCGAAUGGGACCCA [G5C G68U] | 0.0615 |
| GGACGGCAUGGUCCCAGCCUCCUCGCUGGCGCCGGAUGGGCAACAUUCCGAGGGGACCGUCCCCUCGGUAAUGGCGAAUGGGACCCA [C3A C36A] | 0.071 |
| GGCCGGCAUGGUCCCAGCCUCCUGGCUGGCGCCGGCUGGGCAAAAUUCCGAGGGGACCGUCCCCUCGGUAAUGGCGAAUGGGACCCA [C24G C44A] | 0.0297 |
| GGCCGGCAUGGUCCCAGCCUCCGCGCUGGCGCCGGCUGGGCAACAUUCCGAGGGGACCUUCCCCUCGGUAAUGGCGAAUGGGACCCA [U23G G59U] | 0.886 |
| GGCCGGCAUGGUCCCAGCCUCCUCGCUGGCGCCGGCUGGGCAACAUUCCGAGGGGACAGUCCCCUCGGUAAUGGCGAAUGGGUCCCA [C58A A83U] | 0.554 |
| GGCCGGCAUGGUCCCAGCCUCCUCGCUGCCGCCGGCUGGGCAACAUUCCGAGGGGACCGUCCCCUCGGUAAUGCCGAAUGGGACCCA [G29C G74C] | 0.032 |
| GGCCGGCAUGGUCCCAGCCUCCUCGCUGGCGACGGCUGGGCAACAUUCCGAGGGGACCGUCCCCUCGGUAAUGGCGAACGGGACCCA [C32A U79C] | 0.0733 |
| GGCCGGCAUGGUCCCAGCCUCCUCGCUGGCGCCGGCUGGGCAACAUUCCGAGGGGACCGUCCCCUCGGUUCUGGCGAAUGGGACCCA [A70U A71C] | 0.802 |
| GGCCGGCAUGGUCCCAGCCUCCUCGCUGGCGCCGGCUGGGCAACAUUCCUAGGUGACCGUCCCCUCGGUAAUGGCGAAUGGGACCCA [G50U G54U] | 0.668 |
| GGCCGGCAUGGUCCCAGUCUCCUCGCUGGCGCCGGCUGGGCAACAUUCCGAGGGGACCGUCCCCUCCGUAAUGGCGAAUGGGACCCA [C18U G67C] | 0.436 |
| GGCCGGCAUGGUCCCAGCCUCCUCGCUGGCGCCGGCUGGGCAACAUAACGAGGGGACCGUCCCCUCGGUAAUGGCGAAUGGGACCCA [U47A C48A] | 0.973 |

| Variant | self-cleavage |
| --- | --- |
| GGCCGGCAUGGUCCCAGCCUCCUCCCUGGCGCUGGCUGGGCAACAUUCCGAGGGGACCGUCCCCUCGGUAAUGGCGAAUGGGACCCA [G25C C33U] | 0.0773 |
| GGCCGGCAAGGUCCCAGCCUCCUCGCUGGCGCCGGCUGGGCAACAUUCCGAGGGGACCGUCCCCUCGGUAAUGGAGAAUGGGACCCA [U9A C75A] | 0.0573 |
| GGCCGGCAUGGUCCCAACCUCCUCGCUGGCGCCGGCUGGGCAACAUUCCGAGGGGACCGUCCCCUCGGUAAUGGCUAAUGGGACCCA [G17A G76U] | 0.863 |
| GGCCGGCAUGGUCCCAGCCUCCUCGCUGGCGCCGGCUGGGCAACAUUCCGAGGAGACUGUCCCCUCGGUAAUGGCGAAUGGGACCCA [G54A C58U] | 1.22 |
| GGCCGGCAUGGUCCCAGCCUCCUCGCUGGCGCCGGCUGGGCAACAGUCCGAGGGGACCGUCCCCUCGGUAAUGGCGAAUAGGACCCA [U46G G80A] | 0.0811 |
| GGCCGGCAUGGUCCCAGCCUCCUCGCUGGCGCCGGCUGGGCAACAUUCCGAGGGGACCGUCCCCUCGGGAAUGGCGAGUGGGACCCA [U69G A78G] | 0.569 |
| GGCCAGCAUGGUCCCAGCCUCCUCGCUGGCGCGGGCUGGGCAACAUUCCGAGGGGACCGUCCCCUCGGUAAUGGCGAAUGGGACCCA [G5A C33G] | 0.0615 |
| GGCCGGCAUGGUCCCAGCCUCCACGCUGGCGCCGGCUGGGCAACAUUCCGAGGGGACCGUCCCCACGGUAAUGGCGAAUGGGACCCA [U23A U65A] | 0.778 |
| GGCCGGCAUGGUCCCAGCCUCCUCGCUGGCGCCGGCUGGGCAACAUUCAGAGGGGACCGUCCCCUCGGUAUUGGCGAAUGGGACCCA [C49A A71U] | 0.849 |
| GGCCGGCAUGGUCCCAGCCUCCUCGCUGGCGCCGGCUGGGCCACAUUCCGAGGGGACCGUCCCCUCGGUAAUAGCGAAUGGGACCCA [A42C G73A] | 0.245 |
| GGCCGGCAUGGUCCCAGCCUCCUCGCUGGCGCCGGCUGGGCAACAUUCCGAGGGGACCAUCCCUUCGGUAAUGGCGAAUGGGACCCA [G59A C64U] | 0.903 |
| GGCCGGCAUGGUCCCAGCCUCCUCGCUGGCACCGGCUGGGCAACAUUCGGAGGGGACCGUCCCCUCGGUAAUGGCGAAUGGGACCCA [G31A C49G] | 0.34 |
| GGCCCGCAUGGUCCCAGCCUCCUCGCUGGCGCCGGCUGGGCAACAUUCCGAGGGGACAGUCCCCUCGGUAAUGGCGAAUGGGACCCA [G5C C58A] | 0.162 |
| GGCCGGCAUGGUGCCAGCCUCCUCGCUGGCGCAGGCUGGGCAACAUUCCGAGGGGACCGUCCCCUCGGUAAUGGCGAAUGGGACCCA [C13G C33A] | 0.0978 |
| GGCCGGCAUGGUCCCAGCCUCCUCGCUGGCGCCGGCUGGGCAACAUUCCGAGGUGACCGUCCCCUCGGUAAUGGCGAAUUGGACCCA [G54U G80U] | 0.203 |
| AGCCGGCAUGGUCCCAGCCUCCUCGCUGGCGCCGGCUGGGCAACAUUCCGAGGGGACCGUCCCCUCGGUAAUGGCGAAUGGGACCCC [G1A A87C] | 0.121 |
| GGCCGGCAUGGUCCCAGCCUCCUCGCUGGCGCCGGCGGGGCAACAUUCCGAGGGGACCGUCCCCUCGGUAAAGGCGAAUGGGACCCA [U37G U72A] | 0 |
| GGCCGGCAUGGUCCCAGCCUCCUCGCUGGCGCCGGCUGGGCAACAUUCCGAGGGGACCGUCCCCUCUGUAAUGGCGACUGGGACCCA [G67U A78C] | 0.223 |
| GGCCGGCAUGGUCCCAGGUUCCUCGCUGGCGCCGGCUGGGCAACAUUCCGAGGGGACCGUCCCCUCGGUAAUGGCGAAUGGGACCCA [C18G C19U] | 0.0898 |
| GGCCGGCAUGAUCCCAGCCUCCUCGCUGGCGCCGGCUGGGCAACAUUCCGAGGGGACCGUCCCCUCGGUAAUGGCGAAUGGCACCCA [G11A G82C] | 0.0739 |
| GGCCGGCAUGGUCCCAGCCUCCUCGCUGGCGCCGGAUGGGCAACAUUCCGAGGGGACCGUGCCCUCGGUAAUGGCGAAUGGGACCCA [C36A C61G] | 0.269 |
| GGCCGGCAUGGUCCCAGCCUCCUCGCUGGCGCCGGCUAGGCAACAUUCCGAGGGGACCGUACCCUCGGUAAUGGCGAAUGGGACCCA [G38A C61A] | 0.105 |

| Variant | self-cleavage |
| --- | --- |
| GGCCGGCAGGGUCCCAGCCUCCUCGCUGGCGCCGGCUGGGCAACAUUCCGAGGGGACCGUCCCCUCGGUACUGGCGAAUGGGACCCA [U9G A71C] | 0.787 |
| GGCCGGCAUGGUCCCAGCCUCCUCGCUGGCGCCGGCUGGGCAACACUCCGAGGGGACCGUACCCUCGGUAAUGGCGAAUGGGACCCA [U46C C61A] | 1.09 |
| GGCCGGCAAGGUCCCAGCCUCCUCGCUGGCGCCGGCUGGGCAACAUACCGAGGGGACCGUCCCCUCGGUAAUGGCGAAUGGGACCCA [U9A U47A] | 1.09 |
| GGCCGGCAUUGUCCCAGCCUCCUCGCUGGCGCCGGCUGGGCAACAUUCCGAGGGGACCGUCCCCUCGGUAAUAGCGAAUGGGACCCA [G10U G73A] | 0.235 |
| GGCCGGUAUGGUCCCAGCCUCCUCGCUGGCGCCGGCUGGGCAACAUUCCGAGGGGACAGUCCCCUCGGUAAUGGCGAAUGGGACCCA [C7U C58A] | 0.88 |
| GGCAGGCAUGGUCCCAGCCUCCUCGCUGGCGCCGGCUGGGCAACAUUCCGAAGGGACCGUCCCCUCGGUAAUGGCGAAUGGGACCCA [C4A G52A] | 0.401 |
| GGCCGGCAUGGUCCCCGCCUCCUCGCUGGCGCCGGCUGGGCAACAUUCCGAGGGGACGGUCCCCUCGGUAAUGGCGAAUGGGACCCA [A16C C58G] | 0.532 |
| GGCCGGCAUGGUCCCAGCCUCCUCGCUGGCGCCGGCUGGGCAACAUUCCGAUGGGACCGUCCCCUCGGUAAUGGCGAAUAGGACCCA [G52U G80A] | 0.528 |
| GGCCGCCAUGGUCCCAGCCUCCUCGCUGGCGCUGGCUGGGCAACAUUCCGAGGGGACCGUCCCCUCGGUAAUGGCGAAUGGGACCCA [G6C C33U] | 0.155 |
| GGCCGGCAUGGUCCCCGCCUCCUCGCUGGCGCCGGCUGGGCAACAUUCCGAGGGGACCGUCCCCUCGGUAACGGCGAAUGGGACCCA [A16C U72C] | 0.227 |
| GGCCGGCAGGGUCCCAGCCUUCUCGCUGGCGCCGGCUGGGCAACAUUCCGAGGGGACCGUCCCCUCGGUAAUGGCGAAUGGGACCCA [U9G C21U] | 0.332 |
| GGCCGGCAUGGUCCCAACCUCCUCGCUGCCGCCGGCUGGGCAACAUUCCGAGGGGACCGUCCCCUCGGUAAUGGCGAAUGGGACCCA [G17A G29C] | 0.0405 |
| GGCCGGCAUGGUCCCAUCCUCCUCGCUGGCGCCGGCUGGGCAACAUUCCGAGGGGACCGUCCCCUCGGUAAUGGCGAAUGGGACUCA [G17U C85U] | 0.614 |
| GGCCGGCAUGGUCCCUGCCUCCUGGCUGGCGCCGGCUGGGCAACAUUCCGAGGGGACCGUCCCCUCGGUAAUGGCGAAUGGGACCCA [A16U C24G] | 0.237 |
| GGCCGGCAUGGUCCCAGUCUCCUCGCUGGCGCCGGCUGGGCAACAUUCCGAGGGGACUGUCCCCUCGGUAAUGGCGAAUGGGACCCA [C18U C58U] | 0.554 |
| GGCCGGCAUGGUCCCAGCCUCCUCGCUGGCGCCGGCUGGCCAACAUUCCGAGGGGACCGUCCCUUCGGUAAUGGCGAAUGGGACCCA [G40C C64U] | 0.223 |
| GGCCGGCAUGGUCCCAGCCUCCUCGCUGGCGCCGGCUGGGCAACAUUCCGAAGGGACCGUCCCGUCGGUAAUGGCGAAUGGGACCCA [G52A C64G] | 0.935 |
| GGCCGGCAUGGUCCCAGCCUCCUCGCUGGCGCCGGCUGGGCAACUUUCCGAGGGGACCGUCCCCUCGGUAAUGGCGAAUGAGACCCA [A45U G81A] | 0.259 |
| GGCCGGCAUGGUCCCAGCCACCUCGCUGGCGCCGGCUGGGCAACAUUCCGAGGGGACCGUCCCCUCGGUAAUGGCGAAUGGGACGCA [U20A C85G] | 0.107 |
| GGCCGGCAUGGUCCCACCCUCCUCGCGGGCGCCGGCUGGGCAACAUUCCGAGGGGACCGUCCCCUCGGUAAUGGCGAAUGGGACCCA [G17C U27G] | 0.499 |
